Consider 20 sequences from a protein production outcome set (Wang et al. 2014).

The nature of this series: label from the status in PepcDB records.

For the sequence “MEYNVQDMIFQFIGGLGIFLFGIKYMGDGLQQAAGDRLRDILDRFTTNPLMGVLAGMLVTVLIQSSSGTTALTVGLVSAGFMTLRQAIGVIMGANIGTTVTAFIIGIKIGEYALPVMAVGAILLFFFKNKKVHSVGQVVFGFGMLFFGLELMSAGMKPLRSLESFQELTVSMSDNPILGIVVGTVFTLIVQSSSATIGILQELFGQGAIDLQAALPVLFGDNIGTTITAVLAAIGTSIAARRAALVHVIFNIIGTIIFTILLIPFTSLIQYFQTSLNLNPEMTIAFAHGTFNVTNTIIQFPFIAVLAWIVTKIIRGEDAAIDFKPQHLNPIFIEQSPAIALTEAQKEIIRMAEFSLHGLKEANQFLNTQDKKHANMATQLEGAINNLDKKITEYLVLLSEKPLSPTDSEKHSVLAGVVGDIERVGDHVENLVELVDFQISNRVSLSDEALAELNEMLELTISTLQDSVEALTNFDTELAQTVIAKERKIDQMERVLRKRHVLRLNERSCSGDASIIFVDMVSNLERIGDHAVNIADGVLGEQGKINLKQSL”, the protein production entry is on record as “failed”.

As for “MEYQLSQAGNKGKVLILKVTGIFFVALAILGVVLPILPTTPFLLVAAACFAKSSPTMQRKLLANKTFGPLIHDWQKYRSIPRKAKRIALLTMILSVCWSAFMLQSVMLTALVVALVIGPFIFLLRLPESK”, the protein production result was “failed”.

On to “MFACMGVLVKLAAAFFSNTELVFYRSLVGVITTFLVMRAYGMPLVTEHWKSHCWRGLSGLGGVLLFFYCILQLPLATAISLNNTWPLFLAFLAMILLKEEFSWLLAGALVVGFIGVIFLLRPTLAEGQWYLALIGIGSGLFAGIAHFHVRQLSELGESDWLTVFYFTLVCTVATGLWLTFTAFSAVSLQSLTLALGIGVTATLAQLAISRAHRGSNILIVGVLSYSSVLFAGLMDLFFWDARLPVSAWVGMGLIILGGLLSIRGIPVRNSSIVTLDD”, for which the protein production result is “failed”.

“MFAFPRLRFVLVGTQHPGNIGAAARAMKTMGISRLVLVAPECQLDEHAYRRSAGAEDVLEAASVHTVLADAVADCTFVLGCTARTRRVAFEELRPAAAASQILTNINAAGEVALLFGRERTGLTNEELQLCHVAVHIPADPLFSSLNLAAAVQILAYEIRLASLDAPSAPLHSTSGFRKTPASHAQLEGLFGQFKQTLDEIDFHKGRAPESAMRKLRRLFAKAELTQQEIRLLRGVLSDVQRIVMLKRQRDT”: the protein production result is reported as “failed”.

For the sequence “MFAIRRRCRPRPGQFQHGWSGLPTHTVPQAGSIAPIGRVRPSSVGNVRPTPECNVLPSFGRSSTNPSFPMEPIEDLDVLAEDEVRQREADGEVDEDLDRVKHGYDATAGDKQVYIETYGCQMNVNDSGIVASVLEESGYGLTRDQAAADVVLLNTCAIRENAERKIRARLSMLRSEKEKRDGELMLGVLGCMAERLREKLLEQEDLVDVVVGPDAYRDLPQLLYEADATGQAAVNVELSKQETYEDIQPVRYDSNGVSAYVSIMRGCDNMCTFCVVPFTRGREESRPVTTILSEVARLAEEGYKEVTLLGQNVNSYHYTDADGTSVSFAELVDRVSRVSPEMRVRYSTSHPKDCTDDLLKVHRDRPNVCNYIHLPVQHGNTEVLDRMRRTYTREEYLALTERAKELCPGVSLSTDLIAGFCGETEAQHEDTLSLMEEVRYDHAYMFKYSERPQTYAARKYEDDVPEDTKQRRLEEIIELQNQHAKESNEAEVGRVHTVLVEGPSKKSDAQFFGRTDTNKGVVFDREDYEKGDYVRVRIEDCTSSTLLGTAIEKTTLEAAARTDSITTSPAVA”, the protein production result was “failed”.

On to “MFAPQGLAQFIKVNVTLENGEPVFIYTDANGQVCQGDITVTQAGTITYLLNDQTLKGLKFVGVGFVTPFDGIIDAVTISSDGMLVQLVDLDKTPGTTKFQFVLSNTANTLLVLSPDPQIINRPQN”, for which the protein production entry is “not failed”.

For “MFARTAIAPPFAAMAAGRIPNTHDSDMAEARPDSLTRSRAAKPAGEGAAFSPLYRQIKELLVQSLDRGEWKPGELIPSEIDLAARFQVSQGTVRKAVDELAAEHLLLRRQGKGTFVATHHEARVRYRFLRLAPDEEGEGGRAESRILECRRLRAPAEIARALELRAGETVVTIRRQLSMNHMPTVIDDLWLPGTHFRGLTLELLTASKAPLYGLFESEFGVSMVRADEKLRAVAASPEIAPLLGVEPGRPLLQVDRISYTYGDRPMEVRRGLYLTDHYHYRNSLN”, the protein production result was “failed”.

“MFAYSARLFLRPLWSDDLGVLLDLLDTASSRSGLLDSPDNDVTRYLRDNAARLIHENDVTRPHSGIFLRDGKEPRLIGITALAGKEAHFFCWIAPAFRGQGFATEASRLMLHFADEALRLPSLTAAYDHADAAAEKLLTKLGFSE”: the protein production entry is “failed”.

“MFCTFFEKHHRKWDILLEKSTGVMEAMKVTSEEKEQLSTAIDRMNEGLDAFIQLYNESEIDEPLIQLDDDTAELMKQARDMYGQEKLNEKLNTIIKQILSISVSEEGEKELKSNRIFISWLRWPLFIRIGVIILCLILLFGQIIYILEPKQFTSVFEGIWWAVVTVSTVGYGDYVPHTPLGQAAGILLILSGASFVTAYFATLSAAAFSRQHRYIEGKVAYKGRDHIILIGWNEKTNRLLKDLQLGAPSKTVVLIDESLTEGPLIENVHFIRGHAADDGTLKRANITEAESVMITADQYKSETDADMLSVLTLLSVKGLNPLAYCIVEILTDRFVTNAERAGANQIIGTSEFISRAMLQHYQVKLRRLNSRTESS”: the protein production entry was “failed”.

Regarding “MFDFLTHDMLAVVWFFLWCVIWGVYFIADSFSLGAGLLTPFIAADKVQRIQIQSSVGPFWGGNEVWLILAAGGTFAAFPLVFSKMFTFLYLPMMLLLIGLIARGISVEYLHKDDNPRIQQFLMWGWFAGSLLVSLVLGVAFANFFKGLEIASGGVYKGTLPGLFGPYALISGVLFVLMSVTSGALWINVKTEGAVAAKAGDLAKKSALLVLIFALVYLAYSFAGVEGFATNYSSMPVLYLLPVLAVGGAVLSVFFAKKGRAFPAFCSNLLAFLFIVEGGLASIYPYMLKSSISPEYGIDIFEAASSHMTLSVMLGGALVFVPIVIIYQLWAYTLFREKITETEQVEY”, the protein production entry was “failed”.

On to “MFDNDRLLLRVLLFGLLGASLWVLAPFWSALFWAAVLAFASWPLMRMLTRLLGGRESLAAGLLTLGWIVLVALPLIWLGFGLADNVRSLMELLKNLQVEGLPPPPSWMAGVPLIGDRLIGWWDSIDQQGVAFFYVLKPYVGEVGNWLLARSAKIGGGILELVLSLILIFFFYRDGPRLESIVHRALERLIGNRAEHYRDLVAGTVQRVVNGVIGTAAAQALLAWIGFMIAGVPGAMLLGLLTFACSLLMVPPLVWGPATAWLFFKGDYGHGVFLGLWGFFIISGVDNILKPYLISRGGNLPLVVVLLGVFGGLLAFGFMGLFLGPILLAVAYNLLSDWIASTPRTPPGEGRGPDA”, for which the protein production result is listed as “failed”.

On to “MFDNLQRKFLNLIGIEIEEEDKPQESTKAKEENVKPKHETPKVVTIGKANQTEVTVYNLKLFDEVVKVCDALRENKIVVFNLEQVAEDHIQRIIDFVSGAVYVLDAKIHKVSKKIFVVVPRSIDLEVDEQLKEEFRTKGVFAWLK”, for which the protein production result was “failed”.

In the case of “MFEISRSRAKAMRPFLALATATVMMLSLAACSSSDNSSTNAQGNTDVAVGGQRFSTADQETAKLGSDAQPGQFPRTVVHAAGTTEITTKPERVVVLDTGELDSVLSLGITPVGMTTTKGANPVPSYLADKVKDVERVGTINELNIEAIAALKPDLIIGSQLRADKLYPQLSDIAPTVFSIRPGSPWKENFLLVGEALGMEKEAEEKLNEYADRVAELKNNVPQNTEVSLVRFMPNKLRLYGNKSLIGVVLADAGLARPEKQNVDDLAVEISPENIDQAAGSVIFYTSYGKPDATGETAVVEGPAWKNLEAVAAGKAHRVNDDVWFLGLGPTGAMEIVSDLHDYLLKK”, the protein production entry is “failed”.

Consider “MFFKQFYDKHLSQASYLIGCQKTGEAMIIDPIRDLSSYIRVADEEGLTITHAAETHIHADFASGIRDVAIKLNASIYVSGESDDTLGYKNMPNQTHFVQHNDDIYVGNIKLKVLHTPGHTPESISFLLTDEGAGAQVPMGLFSGDFIFVGDIGRPDLLEKAVKVEGSSEIGAKQMFKSIESIKDLPNYIQIWPGHGAGSPCGKSLGAIPTSTLGYEKQTNWAFSENNEATFIDKLISDQPAPPHHFAQMKKINQFGMNLYQPYTVYPATNTNRLTFDLRSKEAYHGGHIEGTINIPYDKNFINQIGWYLNYDQEINLIGEYHLVSKATHTLQLIGYDDVAGYQLPQSKIQTRSIHSEDITGNESHILDVRNDNEWNNGHLSQAVHVPHGKLLETDLPFNRNDVIYVHCQSGIRSSIAIGILEHKGYHNIINVNEGYKDIHLSLEHHHHHH”, for which the protein production entry is on record as “failed”.

In the case of “MFFTDWEGPWILTDFALELCMAVFNNARFFSNLSEYDDYLAYEVRREGYEAGYTLKLLTPFLAAAGVKNRDVERIAELSAKFVPDAEKAMATLQERWTPVVISTSYTQYLRRTASMIGVRGELHGTEVDFDSIAVPEGLREELLSIIDVIASLSGEELFRKLDELFSRSEVRKIVESVKAVGAGEKAKIMRGYCESKGIDFPVVVGDSISDYKMFEAARGLGGVAIAFNGNEYALKHADVAIISPTAMSEAKVIELFMERKERAFEVLSAVSIPETEIYIMENSDFGEVLEKSKRMRVRLRGLAGELG”, the protein production entry was “not failed”.

Regarding “MFGFLRSTTSNDNTLSDTQVNESYRYWRLHIMIGMYIGYAGFYFTRKTFNYAAPAMITDLGLDKGDLGLIGTLFYISYGLSKFLSGTISDRSNPRYFMGLGLIATGLINIAFGFSSSLAAFISLWVLNAWFQGWGWPSCSKLLTTWYSRSERGFRWAIWNTAHNIGGALIPILVGYLTLHYSWREGFILPGIIGVAIGLIVCWRLRDKPTTMGLPSVGKWRNDPLELAQENHGQGLSYREILKTYVFSNKYIWLLAFSYVLVYIVRTAVNDWGNLYLTEEHNYSLINANAALSLFEIGGFVGSLVAGWGSDKLFGGNRGPMNILFAIGIFLSVSALWLMPLTNFVFQAAGLFSVGFFVFGPQMLIGMAAAECSHKDSAGAATGFVGLFAYMGAALSGYPLAVILETYGWTGFFITISTCAAVIGLLLLPFLQAQSPQKPIETRVRL”, the protein production result is “failed”.

“MFGTPSSSPSFGTPSSTPAFGTSSPAFGTPSATPAFGTPSNPSFSSGGFGSSLFSSPFSSQQPQQQQQQQQQQQPSSLFQQQPSSNFGFQSPFNNTAQQQQQTPFPNAQLTTQMAPVAPIPYSLADRDVQAIIEAYKEDPTNPKYAFQHLLFSVTEPQYRVKPAAVSDIMWAEAMSKLEGMDSTERERLWPQLVQGFKDLSQRLKLQDEVLVSDRDRIKTTQSNVKMLQRHLQASTFPSIERLRQKEQSLQRRMLRVMRIIEGLEGKGFRLPLTKGEAELSEKLTAITRQVKGPGAELSRRVQSLQTISRAQANSIAAGSSLYLPGSTKIDEQSLIDMQEVLQQETEAIGRLGNVLKRDMRDMEIMVAEDTEMALDS”: the protein production entry is on record as “failed”.

With “MFHVSFRYIFGLPPLILVLLPVASSDCDIEGKDGKQYESVLMVSIDQLLDSMKEIGSNCLNNEFNFFKRHICDANKEGMFLFRAARKLRQFLKMNSTGDFDLHLLKVSEGTTILLNCTGQVKGRKPAALGEAQPTKSLEENKSLKEQKKLNDLCFLKRLLQEIKTCWNKILMGTKEH”, the protein production entry is listed as “failed”.

For “MFIGGAIISFLFLFGYMWKEAHSNRIRHVTLSFPHFPDNGPPLTIFFISDIHRRSVSCRMLETVKGKADLVVIGGDLAEKGVPAARVRENVRRLQTVAPVYFVWGNNDDEVDYDLQSLLEEERVYVLKNKAEVWEHGGVPIALIGVGDVSRKEADIARALEHVPPESFRILACHNPAIIARLEDEQHISLVLSGHTHGGQIRLFSFGLYEKGGLKWHGNTALFTSNGYGTTGVPLRLGAPAETHLIKIVPGKLATEKLEHHHHHH”, the protein production entry is recorded as “not failed”.

For “MFIGIVSLFLTVLVYLGAKKVYQRFPRVYTSPLLVTPAVLVGLLLLVNVPYESYNLGGGLLTDMLQPATVAFAIPLYKYFPVLKKYAVEIILNVAVGSCIAIISTALIAKWLHLGTGLIDSLVPRSVTTPIAVHVSEMIGGMPAVTAVFVILTALLGTVIGPMVIRYFRIDNEIARGVLLGTSAHGAGTSKAFELSSVSGTISSVSMILAAIMTLWPAPFCFHLCKKLSSRGQFFLCASPY”, the protein production result was “failed”.
